# Test results reported in US20160159919A1 (Chugai, published 2016).
# Biological target: T1, soluble human EREG fragment having a mature EGF domain structure (R&D Systems cat. no. 1195-EP/CF) (human, UniProt O14944 63-108)
# T1 construct: bought; coated on ELISA plates; also called human epiregulin; recombinant human Epiregulin
# Assay: competitive ELISA on coated soluble human EREG fragment
# Procedure: The soluble human EREG fragment having a mature EGF domain structure (the polypeptide of SEQ ID NO: 34 which corresponds to ⁶³Val to ¹⁰⁸Leu) was purchased from R&D Systems (cat. no. 1195-EP/CF). The soluble human EREG fragment was used to coat nunc immunoplates, and after blocking with a BSA-containing solution, the competitive binding reactivity between mouse hybridoma-derived EP27 and the purified humanized anti-EREG antibody was analyzed. Mouse hybridoma-derived EP27 and a purified humanized anti-EREG antibody were added to the plates, and after two hours of incubation, the plates were washed; and an alkaline phosphatase-labeled anti-human IgG antibody (Zymed) was added to each well of the plates and then allowed to react. Each well was washed, and then the amount of bound antibody (A405/655 detection value) was determined by addition of a test reagent, Sigma p-Nitrophenyl phosphate Tablets.
# T1 sequence (O14944 63-108 limits assumed): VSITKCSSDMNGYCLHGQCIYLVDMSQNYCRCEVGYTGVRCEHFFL
binder,measurement,value
"H3-G1d/LB-k (antibody, human IgG1, kappa, V domains shown) VH: QDQLVQSGAEVKKPGASVKVSCKASGFNIKDTYIQWVRQAPGQGLEWMGRIDPLNGNTKYVDKFQGRVTITADTSTNTAYMELSSLRSEDTAVYYCVRSGTLFDFWGQGTLVTVSS VL: DIQMTQSPSSLSASVGDRVTITCKASQDIHKYIAWYQQKPGQAPRLLIQYTSTLQPGVPSRFSGSGSGTDYTFTISSLQPEDIATYYCLQYDNLRTFGGGTKVEIKR",binding result,binds
"H5-G1d/LB-k (antibody, human IgG1, kappa, V domains shown) VH: QDQLVQSGAEVKKPGASVKVSCKASGFNIKDTYIQWVRQAPGQGLEWMGRIDPLNGNTKYVPSFQGRVTITADTSTNTAYMELSSLRSEDTAVYYCVRSGTLFDFWGQGTLVTVSS VL: DIQMTQSPSSLSASVGDRVTITCKASQDIHKYIAWYQQKPGQAPRLLIQYTSTLQPGVPSRFSGSGSGTDYTFTISSLQPEDIATYYCLQYDNLRTFGGGTKVEIKR",binding result,binds
"H6-G1d/LB-k (antibody, human IgG1, kappa, V domains shown) VH: QDQLVQSGAEVKKPGASVKVSCKASGFNIKDTYIQWVRQAPGQGLEWMGRIDPLNGNTKYVPQFQGRVTITADTSTNTAYMELSSLRSEDTAVYYCVRSGTLFDFWGQGTLVTVSS VL: DIQMTQSPSSLSASVGDRVTITCKASQDIHKYIAWYQQKPGQAPRLLIQYTSTLQPGVPSRFSGSGSGTDYTFTISSLQPEDIATYYCLQYDNLRTFGGGTKVEIKR",binding result,binds
"H7-G1d/LB-k (antibody, human IgG1, kappa, V domains shown) VH: QDQLVQSGAEVKKPGASVKVSCKASGFNIKDTYIQWVRQAPGQGLEWMGRIDPLNGNTKYVPKFDGRVTITADTSTNTAYMELSSLRSEDTAVYYCVRSGTLFDFWGQGTLVTVSS VL: DIQMTQSPSSLSASVGDRVTITCKASQDIHKYIAWYQQKPGQAPRLLIQYTSTLQPGVPSRFSGSGSGTDYTFTISSLQPEDIATYYCLQYDNLRTFGGGTKVEIKR",binding result,binds
"H8-G1d/LB-k (antibody, human IgG1, kappa, V domains shown) VH: QDQLVQSGAEVKKPGASVKVSCKASGFNIKDTYIQWVRQAPGQGLEWMGRIDPLNGNTKYVPKFEGRVTITADTSTNTAYMELSSLRSEDTAVYYCVRSGTLFDFWGQGTLVTVSS VL: DIQMTQSPSSLSASVGDRVTITCKASQDIHKYIAWYQQKPGQAPRLLIQYTSTLQPGVPSRFSGSGSGTDYTFTISSLQPEDIATYYCLQYDNLRTFGGGTKVEIKR",binding result,binds
"H9-G1d/LB-k (antibody, human IgG1, kappa, V domains shown) VH: QDQLVQSGAEVKKPGASVKVSCKASGFNIKDTYIQWVRQAPGQGLEWMGRIDPLNGNTKYVPKFQDRVTITADTSTNTAYMELSSLRSEDTAVYYCVRSGTLFDFWGQGTLVTVSS VL: DIQMTQSPSSLSASVGDRVTITCKASQDIHKYIAWYQQKPGQAPRLLIQYTSTLQPGVPSRFSGSGSGTDYTFTISSLQPEDIATYYCLQYDNLRTFGGGTKVEIKR",binding result,binds
"H10-G1d/LB-k (antibody, human IgG1, kappa, V domains shown) VH: QDQLVQSGAEVKKPGASVKVSCKASGFNIKDTYIQWVRQAPGQGLEWMGRIDPLNGNTKYVPKFQERVTITADTSTNTAYMELSSLRSEDTAVYYCVRSGTLFDFWGQGTLVTVSS VL: DIQMTQSPSSLSASVGDRVTITCKASQDIHKYIAWYQQKPGQAPRLLIQYTSTLQPGVPSRFSGSGSGTDYTFTISSLQPEDIATYYCLQYDNLRTFGGGTKVEIKR",binding result,binds
"H23-G1d/LB-k (antibody, human IgG1, kappa, V domains shown, also called H23-G1/LB-k) VH: QDQLVQSGAEVKKPGASVKVSCKASGFNIKDTYIQWVRQAPGQGLEWMGRIDPLNGSTKYVPKFQGRVTITADTSTNTAYMELSSLRSEDTAVYYCVRSGTLFDFWGQGTLVTVSS VL: DIQMTQSPSSLSASVGDRVTITCKASQDIHKYIAWYQQKPGQAPRLLIQYTSTLQPGVPSRFSGSGSGTDYTFTISSLQPEDIATYYCLQYDNLRTFGGGTKVEIKR",binding result,binds
"H25-G1d/LB-k (antibody, human IgG1, kappa, V domains shown) VH: QDQLVQSGAEVKKPGASVKVSCKASGFNIKDTYIQWVRQAPGQGLEWMGRIDPLNGNTKYVPKFQGRVTITADTSTNTAYMELSSLRSEDTAVYYCVRSGTSFDFWGQGTLVTVSS VL: DIQMTQSPSSLSASVGDRVTITCKASQDIHKYIAWYQQKPGQAPRLLIQYTSTLQPGVPSRFSGSGSGTDYTFTISSLQPEDIATYYCLQYDNLRTFGGGTKVEIKR",binding result,binds
"H31-G1d/LB-k (antibody, human IgG1, kappa, V domains shown) VH: QDQLVQSGAEVKKPGASVKVSCKASGFNIKDTYIQWVRQAPGQGLEWMGRIDPLNGNTKYVEKFEGRVTITADTSTNTAYMELSSLRSEDTAVYYCVRSGTLFDFWGQGTLVTVSS VL: DIQMTQSPSSLSASVGDRVTITCKASQDIHKYIAWYQQKPGQAPRLLIQYTSTLQPGVPSRFSGSGSGTDYTFTISSLQPEDIATYYCLQYDNLRTFGGGTKVEIKR",binding result,binds
"H40-G1d/LB-k (antibody, human IgG1, kappa, V domains shown, also called H40-G1/LB-k) VH: QDQLVQSGAEVKKPGASVKVSCKASGFNIKDTYIQWVRQAPGQGLEWMGRIDPLNGQTKYVPKFQGRVTITADTSTNTAYMELSSLRSEDTAVYYCVRSGTLFDFWGQGTLVTVSS VL: DIQMTQSPSSLSASVGDRVTITCKASQDIHKYIAWYQQKPGQAPRLLIQYTSTLQPGVPSRFSGSGSGTDYTFTISSLQPEDIATYYCLQYDNLRTFGGGTKVEIKR",binding result,binds
"H41-G1d/LB-k (antibody, human IgG1, kappa, V domains shown) VH: QDQLVQSGAEVKKPGASVKVSCKASGFNIKDTYIQWVRQAPGQGLEWMGRIDPLNGNTKYHPKFQGRVTITADTSTNTAYMELSSLRSEDTAVYYCVRSGTLFDFWGQGTLVTVSS VL: DIQMTQSPSSLSASVGDRVTITCKASQDIHKYIAWYQQKPGQAPRLLIQYTSTLQPGVPSRFSGSGSGTDYTFTISSLQPEDIATYYCLQYDNLRTFGGGTKVEIKR",binding result,binds
"H42-G1d/LB-k (antibody, human IgG1, kappa, V domains shown) VH: QDQLVQSGAEVKKPGASVKVSCKASGFNIKDTYIQWVRQAPGQGLEWMGRIDPLNGNTKYKPKFQGRVTITADTSTNTAYMELSSLRSEDTAVYYCVRSGTLFDFWGQGTLVTVSS VL: DIQMTQSPSSLSASVGDRVTITCKASQDIHKYIAWYQQKPGQAPRLLIQYTSTLQPGVPSRFSGSGSGTDYTFTISSLQPEDIATYYCLQYDNLRTFGGGTKVEIKR",binding result,binds
"H43-G1d/LB-k (antibody, human IgG1, kappa, V domains shown) VH: QDQLVQSGAEVKKPGASVKVSCKASGFNIKDTYIQWVRQAPGQGLEWMGRIDPLNGNTKYRPKFQGRVTITADTSTNTAYMELSSLRSEDTAVYYCVRSGTLFDFWGQGTLVTVSS VL: DIQMTQSPSSLSASVGDRVTITCKASQDIHKYIAWYQQKPGQAPRLLIQYTSTLQPGVPSRFSGSGSGTDYTFTISSLQPEDIATYYCLQYDNLRTFGGGTKVEIKR",binding result,binds
"H44-G1d/LB-k (antibody, human IgG1, kappa, V domains shown) VH: QDQLVQSGAEVKKPGASVKVSCKASGFNIKDTYIQWVRQAPGQGLEWMGRIDPLNGNTKYSPKFQGRVTITADTSTNTAYMELSSLRSEDTAVYYCVRSGTLFDFWGQGTLVTVSS VL: DIQMTQSPSSLSASVGDRVTITCKASQDIHKYIAWYQQKPGQAPRLLIQYTSTLQPGVPSRFSGSGSGTDYTFTISSLQPEDIATYYCLQYDNLRTFGGGTKVEIKR",binding result,binds
"H45-G1d/LB-k (antibody, human IgG1, kappa, V domains shown) VH: QDQLVQSGAEVKKPGASVKVSCKASGFNIKDTYIQWVRQAPGQGLEWMGRIDPLNGNTKYTPKFQGRVTITADTSTNTAYMELSSLRSEDTAVYYCVRSGTLFDFWGQGTLVTVSS VL: DIQMTQSPSSLSASVGDRVTITCKASQDIHKYIAWYQQKPGQAPRLLIQYTSTLQPGVPSRFSGSGSGTDYTFTISSLQPEDIATYYCLQYDNLRTFGGGTKVEIKR",binding result,binds
